Patent US20160257732A1 (published 2016)
“And” between values parts separate entries of the source, which are not always exact repeats. Equal entries are not always repeated. Where two headings read alike, the source gives them in different places.

Tests used:
Assay in all cases: cell-based or functional assay
[1] = target: HA of A/Fort Monmouth/1/47 (H1N1) (influenza A virus)
[2] = target: HA of A/New Jersey/8/76 (H1N1) (influenza A virus)
[3] = target: HA of A/Kawasaki/9/86 (H1N1) (influenza A virus)
[4] = target: HA of ca A/Texas/36/91 (H1N1) (influenza A virus)
[5] = target: HA of ca A/Beijing/262/95 (H1N1) (influenza A virus)
[6] = target: HA of ca A/New Caledonia/20/99 (H1N1) (influenza A virus)
[7] = target: HA of ca A/swine/Missouri/06 (H2N3) (influenza A virus)
[8] = target: HA of ca A/Vietnam/1203/04 (H5N1) (influenza A virus)
[9] = target: HA of ca A/Hong Kong/213/03 (H5N1) (influenza A virus)
[10] = target: HA of ca A/teal/Hong Kong/W312/97 (H6N1) (influenza A virus)
[11] = target: T1, HA of ca A/chicken/Hong Kong/G9/97 (H9N2) (influenza A virus)
[12] = target: HA of A/Hong Kong/8/68 (H3N2) (influenza A virus)
[13] = target: HA of A/Victoria/3/75 (H3N2) (influenza A virus)
[14] = target: HA of ca A/Sydney/5/97 (H3N2) (influenza A virus)
[15] = target: HA of ca A/Panama/2007/99 (H3N2) (influenza A virus)
[16] = target: HA of A/Wyoming/03/03 (H3N2) (influenza A virus)
[17] = target: HA of A/Wisconsin/67/05 (H3N2) (influenza A virus)
[18] = target: HA of ca A/Perth/16/09 (H3N2) (influenza A virus)
[19] = target: HA of ca A/Netherlands/219/03 (H7N7) (influenza A virus)
[20] = target: T2, HA of ca A/Brit. Columbia/CN-6/04 (H7N3-LP) (influenza A virus)
[21] = target: HA of A/Fort Monmouth/1/47 (H1N1) (influenza A virus); remark: listed apart in the source
[22] = target: HA of A/New Jersey/8/76 (H1N1) (influenza A virus); remark: listed apart in the source
[23] = target: HA of A/Kawasaki/9/86 (H1N1) (influenza A virus); remark: listed apart in the source
[24] = target: HA of ca A/Texas/36/91 (H1N1) (influenza A virus); remark: listed apart in the source
[25] = target: HA of ca A/Beijing/262/95 (H1N1) (influenza A virus); remark: listed apart in the source
[26] = target: HA of ca A/New Caledonia/20/99 (H1N1) (influenza A virus); remark: listed apart in the source
[27] = target: HA of virus H1-BS10
[28] = target: HA of ca A/Japan/57 (H2N2) (influenza A virus)
[29] = target: HA of ca A/swine/Missouri/06 (H2N3) (influenza A virus); remark: listed apart in the source
[30] = target: HA of ca A/Vietnam/1203/04 (H5N1) (influenza A virus); remark: listed apart in the source
[31] = target: HA of ca A/Hong Kong/213/03 (H5N1) (influenza A virus); remark: listed apart in the source
[32] = target: HA of ca A/mallard/Alberta/89/85 (H6N2) (influenza A virus)
[33] = target: HA of ca A/teal/Hong Kong/W312/97 (H6N1) (influenza A virus); remark: listed apart in the source
[34] = target: T1, HA of ca A/chicken/Hong Kong/G9/97 …; remark: listed apart in the source
[35] = target: HA of A/Hong Kong/8/68 (H3N2) (influenza A virus); remark: listed apart in the source
[36] = target: HA of A/Victoria/3/75 (H3N2) (influenza A virus); remark: listed apart in the source
[37] = target: HA of ca A/Sydney/5/97 (H3N2) (influenza A virus); remark: listed apart in the source
[38] = target: HA of ca A/Panama/2007/99 (H3N2) (influenza A virus); remark: listed apart in the source
[39] = target: HA of A/Wisconsin/67/05 (H3N2) (influenza A virus); remark: listed apart in the source
[40] = target: HA of ca A/Perth/16/09 (H3N2) (influenza A virus); remark: listed apart in the source
[41] = target: HA of A/Victoria/361/11 (H3N2) (influenza A virus)
[42] = target: HA of ca A/Netherlands/219/03 (H7N7) (influenza A virus); remark: listed apart in the source
[43] = target: T2, HA of ca A/Brit. Columbia/CN-6/04 …; remark: listed apart in the source
[44] = target: HA of ca A/Anhui/1/13 (H7N9) (influenza A virus)
[45] = target: HA of swine-origin A/Minnesota/11/2010 H3N2 virus (influenza A virus)

B1: Antibody 3 (antibody, V domains shown)
VH: QVQLQESGPGLVKPSQTLSLTCAISGDSVSSNNAVWNWIRQSPSRGLEWLGRTYYRSKWYNDYAESVKSRITVNPDTSKNQFSLHLKSVTPEDTAVFYCVRSGHITVFGVNVDAFDMWGQGTMVTVSS
VL: DIQMTQSPSSLSASVGDRVTITCRTSQSLSSYLHWYQQKPGKAPKLLIYAASSLQSGVPSRFSGSGSGTDFTLTISSLQPEDFATYYCQQSRTFGQGTKVEIK
Neutralization IC50, H1-FM47 [1]: 0.92 µg/mL | Neutralization IC50, H1-NJ76 [2]: 1.41 µg/mL | Neutralization IC50, H1-Kaw86 [3]: 0.58 µg/mL | Neutralization IC50, H1-TX91 [4]: 0.6 µg/mL | Neutralization IC50, H1-BJ95 [5]: 3.41 µg/mL | Neutralization IC50, H1-Ncal99 [6]: 0.79 µg/mL | Neutralization IC50, H2-MO06 [7]: 2.27 µg/mL | Neutralization IC50, H5-VM04 [8]: 2.11 µg/mL | Neutralization IC50, H5-HK03 [9]: 4.64 µg/mL | Neutralization IC50, H6-HK97 [10]: 1.77 µg/mL | Neutralization IC50, H9-HK97 [11]: 1.79 µg/mL | Neutralization IC50, H3-HK68 [12]: 0.68 µg/mL | Neutralization IC50, H3-Vic75 [13]: 0.75 µg/mL | Neutralization IC50, H3-Syd97 [14]: 3.75 µg/mL | Neutralization IC50, H3-Pa99 [15]: 17.7 µg/mL | Neutralization IC50, H3-Wy03 [16]: 0.63 µg/mL | Neutralization IC50, H3-WI05 [17]: 2.44 µg/mL | Neutralization IC50, H3-Perth09 [18]: 1.49 µg/mL | Neutralization IC50, H7-NLD03 [19]: 4.78 µg/mL | Neutralization IC50, H7-BC04 [20]: 4.72 µg/mL | Neutralization IC50, H1-FM47 [21]: 1.04 µg/mL | Neutralization IC50, H1-NJ76 [22]: 0.57 µg/mL | Neutralization IC50, H1-Kaw86 [23]: 1.01 µg/mL | Neutralization IC50, H1-TX91 [24]: 0.92 µg/mL | Neutralization IC50, H1-BJ95 [25]: 2.98 µg/mL | Neutralization IC50, H1-Ncal99 [26]: 1.16 µg/mL | Neutralization IC50, H1-BS10 [27]: 2.16 µg/mL | Neutralization IC50, H2-JP57 [28]: 0.46 µg/mL | Neutralization IC50, H2-MO06 [29]: 1.09 µg/mL | Neutralization IC50, H5-VM04 [30]: 1.19 µg/mL | Neutralization IC50, H5-HK03 [31]: 0.71 µg/mL | Neutralization IC50, H6-AB85 [32]: 0.69 µg/mL | Neutralization IC50, H6-HK97 [33]: 0.63 µg/mL | Neutralization IC50, H9-HK97 [34]: 1.18 µg/mL | Neutralization IC50, H3-HK68 [35]: 1.37 µg/mL | Neutralization IC50, H3-Vic75 [36]: 1.12 µg/mL | Neutralization IC50, H3-Syd97 [37]: 6.5 µg/mL | Neutralization IC50, H3-Pa99 [38]: 9 µg/mL | Neutralization IC50, H3-WI05 [39]: 2.62 µg/mL | Neutralization IC50, H3-Perth09 [40]: 1.3 µg/mL | Neutralization IC50, H3-VC11 [41]: 3.4 µg/mL | Neutralization IC50, H7-NLD03 [42]: 4.74 µg/mL | Neutralization IC50, H7-BC04 [43]: 2.95 µg/mL | Neutralization IC50, H7-ANU13 [44]: 4.26 µg/mL | Neutralizing activity IC50, swine-origin A/Minnesota/11/2010 [45]: 2.2 µg/mL and 4.2 µg/mL
